Assays:
[1] = target: T1, hnRNP H RRM domain (RRM1/2) (UniProt P31943 P31943:11-188); test: 1H-15N HSQC NMR titration at 1:0.5; 20 mM potassium phosphate, 70 mM KCl, pH 7.0, 25 C; details: tags: His6 cleaved by 3C protease; pET-28a(+), E. coli BL21(DE3); 15N-labelled; G4
T1 sequence: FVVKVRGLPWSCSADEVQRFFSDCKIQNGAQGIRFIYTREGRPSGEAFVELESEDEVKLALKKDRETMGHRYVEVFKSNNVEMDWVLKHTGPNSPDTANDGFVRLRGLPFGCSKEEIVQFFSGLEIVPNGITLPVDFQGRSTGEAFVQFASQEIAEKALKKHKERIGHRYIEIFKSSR
Procedure: (§1) Titration experiments were performed by recording a series of 2D ¹⁵N-HSQC spectra on uniformly ¹⁵N-labeled RRM domain (˜0.1 mM) in the presence of different amounts of DNA/RNA or compounds at 25° C. Protein samples and stock solutions of DNA/RNA were all prepared in 20 mM potassium phosphate buffer and 70 mM KCl, pH 7.0, 10% D₂O. All compounds were dissolved in isotope-labeled d₆-DMSO (Sigma-Aldrich) at about 50 mM concentration, working as stock solutions. To avoid chemical shift changes of protein samples resulted from d₆-DMSO addition, 10 μL d₆-DMSO was added into 500 μL of 0.1 mM protein solution in the NMR buffer (20 mM potassium phosphate buffer and 70 mM KCl, pH 7.0, 10% D₂O) and then the 2D HSQC was recorded as a reference.

[2] = target: T1, hnRNP H RRM domain (RRM1/2); test: 1H-15N HSQC NMR titration at 1:0.5, described as potent binding; 20 mM potassium phosphate, 70 mM KCl, pH 7.0, 25 C; details: tags: His6 cleaved by 3C protease; pET-28a(+), E. coli BL21(DE3); 15N-labelled; G4
Procedure: as §1

Binder | binding result [1] | binding result [2]
GGGGCCGGGGCC (ssRNA) [RNA (G4C2)2 G4] | binds | –
GGGGCCGGGGCCGGGGCCGGGGCC (structured_DNA) [DNA (G4C2)4 G4] | – | binds

— US20220112180, “NOVEL COMPOUNDS AS POTENTIAL THERAPEUTIC AGENTS TARGETING VARIOUS NEURODEGENERATIVE DISEASES” (The Hong Kong University of Science and Technology, published 2022)
